# Assay results: patent US20090317330A2, “DIAGNOSIS AND TREATMENT OF DISEASES INVOLVING PLATELET ACTIVATION” (Baker IDI Heart and Diabetes Institute Holdings Limited, priority 2007, published 2009)
# B1: LT-α: rat-recombinant lymphotoxin-α microinjected into the striatum (protein, UniProt Q06332 34-202, looked up)
# Lymphotoxin-alpha: LSGVRFSASRTAHQPPQKHLTHGLLKPAAHLVGYPSKQNSLLWRANTDRAFLRHGFSLNNNSLLIPTSGLYFVYSQVVFSGESCSPRAIPTPIYLAHEVQLFSSQYPFHVPLLSAQKSVYPGLQGPWVRSMYQGAVFLLSKGDQLSTHTDGISHLHFSPSTVFFGAFAL
# B2: IL-1β: rat-recombinant interleukin-1β microinjected into the striatum (protein, UniProt Q63264 117-268, looked up)
# Interleukin-1 beta: VPIRQLHCRLRDEQQKCLVLSDPCELKALHLNGQNISQQVVFSMSFVQGETSNDKIPVALGLKGLNLYLSCVMKDGTPTLQLESVDPKQYPKKKMEKRFVFNKIEVKTKVEFESAQFPNWYISTSQAEHRPVFLGNSNGRDIVDFTMEPVSS
# Tested on: platelet adhesion to brain endothelium
# Test: Platelet and leukocyte immunohistochemistry after intrastriatal cytokine microinjection (rat)
# Format: in vivo
# Conditions: versus vehicle, TNF at 24 h
# Description: Rat-recombinant TNF and IL-1[…] were obtained from the National Institute for Biological Standards and Controls (NIBSC, Potters Bar, UK). Rat-recombinant LT-[…] and mouse-recombinant TNF was purchased from R&D Systems (Abingdon, UK). The cytokines were dissolved in endotoxin-free saline (vehicle). The cytokines contained a maximum of 100 IU endotoxin/mg cytokine (corresponding to 10 ppm by weight), which, in view of previous studies, was considered negligible in the context of these experiments.
# 12-week-old male Wistar rats or 8-week-old NMRI mice were used for the injection of the recombinant cytokines (Charles River, Margate, UK). Both rats and mice responded to the injection of cytokines in an identical manner. […]
# Frozen, 10 μm-thick serial coronal sections were cut from tissue blocks. […] The numbers of positive cells present in the brain were quantitated. For each tissue section, 4 representative fields were chosen and the average number of positive cells was calculated and expressed as number of cells per mm^2.
# The p55 mouse anti-rat platelet GPIIa monoclonal antibody was a kind gift from Kirin Brewery Co Ltd, Takasaki, Japan. The numbers of platelet positive elements present in the brain were quantitated. For each tissue section, 6 representative fields were chosen and the average number of positive elements was calculated and expressed as number of discrete elements per mm^2.
row,Molecule,number of platelet positive elements
1,B1,did not increase
2,B2,did not increase
